Target: T1, PGL-3 (1-633)-6xHis-mEGFP (ΔRGG) (Caenorhabditis elegans, UniProt G5EBV6 1-633)
T1 sequence: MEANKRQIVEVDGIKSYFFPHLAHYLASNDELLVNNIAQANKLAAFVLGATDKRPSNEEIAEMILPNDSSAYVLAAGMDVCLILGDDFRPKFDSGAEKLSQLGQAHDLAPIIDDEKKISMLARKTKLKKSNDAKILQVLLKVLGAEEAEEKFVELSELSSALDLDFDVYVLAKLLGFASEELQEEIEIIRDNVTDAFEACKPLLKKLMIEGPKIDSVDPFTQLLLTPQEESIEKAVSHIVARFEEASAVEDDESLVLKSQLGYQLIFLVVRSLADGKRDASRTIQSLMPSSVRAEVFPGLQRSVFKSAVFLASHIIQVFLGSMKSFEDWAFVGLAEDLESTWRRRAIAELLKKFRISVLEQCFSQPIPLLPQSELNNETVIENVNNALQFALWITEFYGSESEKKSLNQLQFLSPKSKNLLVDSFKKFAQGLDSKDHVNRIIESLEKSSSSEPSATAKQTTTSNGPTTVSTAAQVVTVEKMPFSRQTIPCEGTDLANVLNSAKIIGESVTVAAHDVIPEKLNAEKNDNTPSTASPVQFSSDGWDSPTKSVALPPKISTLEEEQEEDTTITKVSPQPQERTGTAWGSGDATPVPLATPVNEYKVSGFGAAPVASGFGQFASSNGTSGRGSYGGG
Test: filter binding

GUUGUUGUUGUUGUUGUUGUUGUUGUUGUUAAAAAAAAAA (ssRNA) [(GUU)10A10 RNA]
binding signal: > 60 fold weaker than full-length PGL-3
